We go through seven substances from patent publication US6663869B1, “Polyoxime compounds and their preparation” (Gryphon Therapeutics, Inc., priority 1993, dated 2003).

The star is where a group is joined. aminooxyacetyl = NOCC(=O)*

Data set [1] can be described thus: storage stability as a powder at −20° C. The format is physicochemical. As for the experimental part: Solvent was removed by vacuum centrifugation (Speed-Vac; Savant Instruments) without heating. […] Similar methods were used to prepare octa-GXL-baseplate (SEQ ID NO: 9).
The hexa-AOA-baseplate product (SEQ ID NO: 5) eluted during the isocratic elution at 5% B. The product eluted as a single peak on analytical RP-HPLC. The mass was determined by ESI-MS to be 1325.49+/−0.38 daltons as compared to the calculated mass of 1325.4 daltons. […] The storage vial was kept tightly sealed and volatile aldehydes were excluded.
Following solvent removal by vacuum centrifugation, the AOA-TCTP sample (SEQ ID NO: 4) was characterized by ESI-MS. The molecular weight of the sample was determined to be 1542.57+/−1.14 daltons, as compared to the expected value of 1541.73 daltons. The reaction yielded 120 mg AOA-TCTP from 1.3 g. AOA-polypeptidyl resin.

For data set [2], the system named is mouse melanoma cells. The conditions noted are these: even when modified at the alpha-amino group and when linked as a homodimer (Bagutti et al. 1992); cited from earlier work.
Data set [3] is classed as physicochemical. As to conditions: pH 7.
Data set [4] deals with B16-F1 melanoma cells. Nature of the data set: in situ melanin assay (Bagutti 1992). The format is cell-based. The conditions noted are these: relative to full-length hormone. The procedure:
The biological activity of MSH can be measured, for example, with an in situ melanin assay in which the peptide is tested for stimulation of B16-F1 melanoma cells (Bagutti 1992).
The binding and potency of some alpha-melanocyte stimulating hormone analog polyoximes were determined. Relative binding in the binding assay using mouse melanoma cells (Bagutti (1992)) refers to the average dissociation constant (Kd) for full-length natural hormone divided by the Kd for our oxime analog. Relative potency in the melanin assay (Bagutti (1992)) refers to the ratio of the concentrations (giving 50% of maximum effect) of full-length hormone and that of analog. Results with the analog of alpha-MSH, Nle-Asp-His-(D)Phe-Arg-Trp-Lys-amide, are provided.

Consider “NH2OCH2CO-ELGGGPGAGSLQPLALEGSLQKR-OH (aminooxyacetyl-ELGGGPGAGSLQPLALEGSLQKR-OH; SMILES CC(C)C[C@H](NC(=O)[C@H](C)NC(=O)[C@H](CC(C)C)NC(=O)[C@@H]1CCCN1C(=O)[C@H](CCC(N)=O)NC(=O)[C@H](CC(C)C)NC(=O)[C@H](CO)NC(=O)CNC(=O)[C@H](C)NC(=O)CNC(=O)[C@@H]1CCCN1C(=O)CNC(=O)CNC(=O)CNC(=O)[C@H](CC(C)C)NC(=O)[C@H](CCC(=O)O)NC(=O)CON)C(=O)N[C@@H](CCC(=O)O)C(=O)NCC(=O)N[C@@H](CO)C(=O)N[C@@H](CC(C)C)C(=O)N[C@@H](CCC(N)=O)C(=O)N[C@@H](CCCCN)C(=O)N[C@@H](CCCNC(=N)N)C(=O)O) [AOA-Pep C COSM]”, for which the storage stability result in data set [1] is “stable for at least several months”.
With “NH2OCH2CO-Lys-Leu-Glu-Glu-Gln-Arg-Pro-Glu-Arg-Val-Lys-Gly-OH (aminooxyacetyl-KLEEQRPERVKG-OH; SMILES CC(C)C[C@H](NC(=O)[C@H](CCCCN)NC(=O)CON)C(=O)N[C@@H](CCC(=O)O)C(=O)N[C@@H](CCC(=O)O)C(=O)N[C@@H](CCC(N)=O)C(=O)N[C@@H](CCCNC(=N)N)C(=O)N1CCC[C@H]1C(=O)N[C@@H](CCC(=O)O)C(=O)N[C@@H](CCCNC(=N)N)C(=O)N[C@H](C(=O)N[C@@H](CCCCN)C(=O)NCC(=O)O)C(C)C) [AOA-TCTP COSM]”, the storage stability entry in data set [1] was “stable for at least several months”.
Take Nle-Asp-His-(D-Phe)-Arg-Trp-Lys: the “binding to melanoma cells” value in data set [2] is recorded as “binds to melanoma cells”.
As to “OCH—CO-Gly3-[Lys(COCHO)]5-Gly-OH [hexa-GXL-baseplate]”, the storage stability entry in data set [1] is reported as “stable for at least several weeks”.
In the case of “Ser-TCTP precursor COSM: TCTP 12-mer peptide with added N-terminal serine, SEQ ID NO: 2 (SKLEEQRPEVKG)”, in data set [1], the storage stability result is recorded as “stable indefinitely”.
Take “acetyl-Asp-Cys-Thr-Leu-Ile-Asp-Ala-Leu-Leu-Gly-Asp-Pro-His-amide (XCTLIDALLGDPX; N-terminal acetyl, C-terminal amide)”: the “oxidized to the disulfide dimer” value in data set [3] was “about 30%”.
Regarding “control monooxime: aminooxyacetyl Nle-Asp-His-(D)Phe-Arg-Trp-Lys-amide oximated with acetaldehyde”, in data set [4], the “relative potency (ratio of concentrations giving 50% of maximum effect of full-length hormone and analog)” value is given as 1.78.
